This passage reports Kd results from patent US20060246084A1 (MICHIGAN STATE UNIVERSITY, published 2006).

One may read the Kd as a measure of binding affinity in units of concentration.

Where two headings read alike, the source gives them in different places.

Assay [1] has as its target T1, LcrV68-326, N-terminally truncated LcrV (Yersinia pestis, UniProt P0C7U7 68-326).
Assay [2] deals with T1, LcrV68-326, N-terminally truncated LcrV. The assay can be described thus: 125I-LcrV68-326 plus unlabelled IFN-γ on U937 cells.
For assay [3] the target is unchanged. Nature of the assay: 125I-LcrV68-326 plus unlabelled IFN-γ on human monocytes.
The target is the same in assay [4]. Nature of the assay: 125I-LcrV68-326 plus unlabelled IFN-γ on human thymocytes.
Assay [5] shares this target. Nature of the assay: 125I-LcrV68-326 plus unlabelled IFN-γ on human neutrophils.
Assay [6] deals with T2, IFN-γ receptor on human cells (no IFN-γ added) (human, UniProt P15260 18-489).
T2 construct: whole, on cells; also called receptors of U937 cells and human neutrophils, monocytes, and thymocytes
T2 sequence: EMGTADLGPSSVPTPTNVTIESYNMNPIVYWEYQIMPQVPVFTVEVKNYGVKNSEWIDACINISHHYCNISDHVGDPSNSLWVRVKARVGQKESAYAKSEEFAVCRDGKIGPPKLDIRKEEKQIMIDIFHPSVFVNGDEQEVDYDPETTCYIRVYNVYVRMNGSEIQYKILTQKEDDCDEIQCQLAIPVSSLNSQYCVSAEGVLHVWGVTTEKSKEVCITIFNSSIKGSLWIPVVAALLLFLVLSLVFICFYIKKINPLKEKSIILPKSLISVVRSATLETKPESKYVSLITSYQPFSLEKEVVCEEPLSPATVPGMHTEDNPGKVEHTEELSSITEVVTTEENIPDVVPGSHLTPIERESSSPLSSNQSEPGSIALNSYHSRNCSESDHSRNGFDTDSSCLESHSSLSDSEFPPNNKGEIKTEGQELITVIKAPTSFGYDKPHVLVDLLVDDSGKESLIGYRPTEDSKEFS
The assay can be described thus: 125I radioligand binding to U937 cells.

The target of assay [7] is T2, IFN-γ receptor on human cells (no IFN-γ …). Nature of the assay: 125I radioligand binding to human monocytes.
The target is the same in assay [8]. The assay can be described thus: 125I radioligand binding to human thymocytes.
Assay [9] has the same target. Nature of the assay: 125I radioligand binding to human neutrophils.

B1: IFN-γ bound to its receptor (IFN-γR-IFN-γ) on human cells (other)
chain 1: QDPYVKEAENLKKYFNAGHSDVADNGTLFLGILKNWKEESDRKIMQSQIVSFYFKLFKNFKDDQSIQKSVETIKEDMNVKFFNSNKKKRDDFEKLTNYSVTDLNVQRKAIHELIQVMAELSPAAKTGKRKRSQMLFRGRRASQ
chain 2: T2 sequence
Take B1: the Kd in [1] came to 16 pM; in assay [2], 800 pM; in assay [3], 7200 pM; in assay [4] it was 2400 pM; in assay [5], 920 pM.

B2: recombinant human IFN-γ (ligand)
chain: B1 chain 1
Take B2: the Kd in [6] was 680 pM; in assay [7], 840 pM; in assay [8], 260 pM; in assay [9], 930 pM.
